Measurements taken from article PMC5470874.

System: Matrin 3 (endogenous, HCT116 nuclear extract) (Homo sapiens (HCT116))
Experiment: pull-down + mass spectrometry
Conditions: rMatrin 3 pulldown: 25 mM Tris-HCl pH 7.5, 150 mM KCl, 0.1% Triton X-100, 100 ug/ml BSA, 2 mM DTT, 5% glycerol, room temperature, 2 hr

For Bi-PINCR (full-length PINCR transcript), the binding signal (fold over Bi-LUC) (DOXO-treated nuclear extract) was 16 and the binding signal (fold over Bi-LUC) (untreated nuclear extract) was 8.
